In patent US20130196933A1 (BOARD OF TRUSTEES OF THE UNIVERSITY OF ILLINOIS, published 2013):

Assays:
GFP-FoxM1B 1-688 protein = target: T1, GFP-FoxM1B 1-688 protein (human, UniProt Q08050 1-703); assay: Co-IP from transfected U2OS extracts
T1 construct: not shown: green fluorescent protein (EGFP) of the pEGFP-C2 expression plasmid (Clontech), N-terminal fusion partner
T1 sequence: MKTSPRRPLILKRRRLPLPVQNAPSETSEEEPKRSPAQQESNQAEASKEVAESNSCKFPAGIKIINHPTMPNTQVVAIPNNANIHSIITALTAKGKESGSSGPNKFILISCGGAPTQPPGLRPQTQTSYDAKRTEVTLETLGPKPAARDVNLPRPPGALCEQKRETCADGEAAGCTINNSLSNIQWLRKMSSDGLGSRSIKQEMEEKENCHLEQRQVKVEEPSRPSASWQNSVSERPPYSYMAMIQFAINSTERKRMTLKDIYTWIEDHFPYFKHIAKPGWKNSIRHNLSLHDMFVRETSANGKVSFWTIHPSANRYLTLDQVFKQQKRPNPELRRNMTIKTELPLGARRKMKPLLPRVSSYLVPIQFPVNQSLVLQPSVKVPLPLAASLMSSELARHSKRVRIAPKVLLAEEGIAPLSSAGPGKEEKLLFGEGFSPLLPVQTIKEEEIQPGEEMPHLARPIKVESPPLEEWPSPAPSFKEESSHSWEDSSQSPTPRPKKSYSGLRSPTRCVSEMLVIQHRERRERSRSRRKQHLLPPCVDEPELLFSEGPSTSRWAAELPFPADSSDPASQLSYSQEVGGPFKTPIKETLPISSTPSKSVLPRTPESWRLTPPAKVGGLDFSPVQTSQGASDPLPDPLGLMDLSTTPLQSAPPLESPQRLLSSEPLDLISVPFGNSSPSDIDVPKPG

Cdk2 protein = Cdk2 protein (human, UniProt P24941 1-298); assay: Co-IP from transfected U2OS extracts with Cdk2 antibody, Western blot with T7 tag antibody
From the text: The immunoprecipitated proteins were subjected to Western blot analysis using a monoclonal antibody against the T7 epitope tagged antibody protein.

[1] = target: T2, GFP-FoxM1B fusion protein, wild type (CMV GFP-FoxM1B; GFP-T7-FoxM1B WT; GFP-FoxM1B 1-748 full-length) (human, UniProt Q08050 1-763); assay: Co-IP with HA antibody, Western blot with GFP antibody
T2 construct: Expressed in transfected U2OS cells; also called CMV-GFP-T7-FoxM1B; GFP-FoxM1B WT; not shown: green fluorescent protein (EGFP) of the pEGFP-C2 expression plasmid (Clontech), N-terminal fusion partner
T2 sequence: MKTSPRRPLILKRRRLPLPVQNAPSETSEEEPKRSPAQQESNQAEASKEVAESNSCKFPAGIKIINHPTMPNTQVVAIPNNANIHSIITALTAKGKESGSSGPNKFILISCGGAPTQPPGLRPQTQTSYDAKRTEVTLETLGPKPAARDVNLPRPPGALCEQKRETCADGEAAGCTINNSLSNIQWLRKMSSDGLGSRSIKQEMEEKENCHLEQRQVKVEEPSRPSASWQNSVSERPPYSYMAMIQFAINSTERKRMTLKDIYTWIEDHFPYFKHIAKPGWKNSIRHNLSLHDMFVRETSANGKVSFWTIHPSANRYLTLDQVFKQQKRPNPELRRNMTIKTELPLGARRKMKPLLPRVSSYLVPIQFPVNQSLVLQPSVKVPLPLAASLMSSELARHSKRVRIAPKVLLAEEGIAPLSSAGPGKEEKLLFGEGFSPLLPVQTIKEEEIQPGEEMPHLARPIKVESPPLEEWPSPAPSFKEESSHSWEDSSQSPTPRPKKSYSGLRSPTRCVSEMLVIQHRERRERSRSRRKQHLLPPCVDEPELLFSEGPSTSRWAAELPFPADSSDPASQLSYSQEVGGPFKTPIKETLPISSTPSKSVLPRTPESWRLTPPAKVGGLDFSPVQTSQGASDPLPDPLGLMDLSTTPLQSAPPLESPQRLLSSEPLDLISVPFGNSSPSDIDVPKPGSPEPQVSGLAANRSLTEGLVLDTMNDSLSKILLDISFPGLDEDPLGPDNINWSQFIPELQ

| Binder | binding result [1] | also measured |
| --- | --- | --- |
| HA-p19^ARF WT protein (other, not shown: small tags and cut ends, residues 26-44 of it are the printed p19ARF 26-44 peptide; Expressed in transfected U2OS cells; also called WT p19; HA tagged p19) MGRRFLVTVRIQRAGRPLQERVFLVKFVRSRRPRTASCALAFVNMLLRLERILRRGPHRNPGPGDDDGQRSRSSSSAQLRCRFELRGPHYLLPPGDRRSAGRLPGHAGGAARVRGSAGCARCLGSPAARLGPRAGTSRHRAIFAFRWVLFVFRWVVFVYRWERRPDRRA |  | binding result (GFP-FoxM1B 1-688 protein): no binding |
| T7-FoxM1B L641A mutant protein (other, not shown: small tags and cut ends, expressed in transfected U2OS cells; also called CMV T7-FoxM1B L641A; CMV FoxM1B L641A) MKTSPRRPLILKRRRLPLPVQNAPSETSEEEPKRSPAQQESNQAEASKEVAESNSCKFPAGIKIINHPTMPNTQVVAIPNNANIHSIITALTAKGKESGSSGPNKFILISCGGAPTQPPGLRPQTQTSYDAKRTEVTLETLGPKPAARDVNLPRPPGALCEQKRETCADGEAAGCTINNSLSNIQWLRKMSSDGLGSRSIKQEMEEKENCHLEQRQVKVEEPSRPSASWQNSVSERPPYSYMAMIQFAINSTERKRMTLKDIYTWIEDHFPYFKHIAKPGWKNSIRHNLSLHDMFVRETSANGKVSFWTIHPSANRYLTLDQVFKQQKRPNPELRRNMTIKTELPLGARRKMKPLLPRVSSYLVPIQFPVNQSLVLQPSVKVPLPLAASLMSSELARHSKRVRIAPKVLLAEEGIAPLSSAGPGKEEKLLFGEGFSPLLPVQTIKEEEIQPGEEMPHLARPIKVESPPLEEWPSPAPSFKEESSHSWEDSSQSPTPRPKKSYSGLRSPTRCVSEMLVIQHRERRERSRSRRKQHLLPPCVDEPELLFSEGPSTSRWAAELPFPADSSDPASQLSYSQEVGGPFKTPIKETLPISSTPSKSVLPRTPESWRLTPPAKVGGLDFSPVQTSQGASDPLPDPLGAMDLSTTPLQSAPPLESPQRLLSSEPLDLISVPFGNSSPSDIDVPKPGSPEPQVSGLAANRSLTEGLVLDTMNDSLSKILLDISFPGLDEDPLGPDNINWSQFIPELQ |  | binding result (Cdk2 protein): no binding |
| HA-p19^ARF Δ26-37 deletion mutant (other, not shown: small tags and cut ends, Deletion of p19 residues 26-37; also called CMV p19^ARFΔ26-37) MGRRFLVTVRIQRAGRPLQERVFLVCALAFVNMLLRLERILRRGPHRNPGPGDDDGQRSRSSSSAQLRCRFELRGPHYLLPPGDRRSAGRLPGHAGGAARVRGSAGCARCLGSPAARLGPRAGTSRHRAIFAFRWVLFVFRWVVFVYRWERRPDRRA | no binding |  |
| HA-p19^ARF Δ26-37+Δ1-14 deletion mutant (other, not shown: small tags and cut ends, Deletion of p19 residues 1-14 and 26-37) GRPLQERVFLVCALAFVNMLLRLERILRRGPHRNPGPGDDDGQRSRSSSSAQLRCRFELRGPHYLLPPGDRRSAGRLPGHAGGAARVRGSAGCARCLGSPAARLGPRAGTSRHRAIFAFRWVLFVFRWVVFVYRWERRPDRRA | no binding |  |
